Molecular target: T1, CYS3 transcriptional activator (Neurospora crassa, UniProt P22697 1-236)
T1 sequence: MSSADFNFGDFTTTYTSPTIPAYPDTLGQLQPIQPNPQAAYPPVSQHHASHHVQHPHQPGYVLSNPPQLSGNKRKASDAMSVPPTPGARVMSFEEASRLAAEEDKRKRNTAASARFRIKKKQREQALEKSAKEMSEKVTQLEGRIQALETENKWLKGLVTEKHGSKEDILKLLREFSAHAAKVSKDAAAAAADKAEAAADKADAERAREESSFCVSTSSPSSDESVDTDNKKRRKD
Experiment: EMSA; Binding buffer not given (refs 14,20); 4% PAGE in 50 mM Tris-80 mM glycine-2 mM EDTA pH 8.5, 20 mA, 4 C
Settings: protein: recombinant; chain copies: 2; label: 32P (T4 PNK); blunt

B1: cys-16+ Site 3 (dsDNA)
DNA 1: AACCTGAATTGCGCCATAGCCAAA
DNA 2: TTTGGCTATGGCGCAATTCAGGTT
Does B1 bind?
Result: binds

Reference: PMC3496659, “Analysis of the sulfur-regulated control of the cystathionine γ-lyase gene of Neurospora crassa”
